{
  "source": "paper PMC11839208",
  "about": "(2025)",
  "biological_target": "Concanavalin A (Canavalia ensiformis, UniProt P02866)",
  "sequence (P02866 30-148, chain 1 of 2)": "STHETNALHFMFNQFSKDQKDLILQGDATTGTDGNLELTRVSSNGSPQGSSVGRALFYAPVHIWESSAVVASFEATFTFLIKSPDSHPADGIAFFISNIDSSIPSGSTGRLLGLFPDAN",
  "sequence (P02866 164-281, chain 2 of 2)": "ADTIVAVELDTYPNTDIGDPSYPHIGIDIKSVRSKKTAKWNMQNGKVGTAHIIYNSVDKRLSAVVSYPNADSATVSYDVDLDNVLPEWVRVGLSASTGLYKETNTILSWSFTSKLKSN",
  "test": "spectral shift (thermal shift in results)",
  "data": [
    {"binder": "FimA (protein) AATTVNGGTVHFKGEVVNAACAVDAGSVDQTVQLGQVRTASLAQEGATSSAVGFNIQLNDCDTNVASKAAVAFLGTAIDAGHTNVLALQSSAAGSATNVGVQILDRTGAALTLDGATFSSETTLNNGTNTIPFQARYFATGAATPGAANADATFKVQYQ", "values": [
      {"measurement": "Kd", "result": "~40", "unit": "µM"}
    ]}
  ]
}
